B1: RAD54B (parent)
chain: YVQEKRDGLKRRQQLEEELLRAKI
B2: USP39 (parent)
chain: FQGSMRIFTKKLPHPDLPAEEKEQ
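Further: lentivirally expressed fusions sorted by FACS into six bins by GFP to DsRed ratio, PSI derived from sequencing read proportions per bin multiplied by bin number.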

In the first series the parent is B1. Put plainly: protein stability index of a GFP-peptide fusion (GPS, HEK-293T) (PSI 1-6); higher = more stable. The note with it: c terminus: a fixed tail appended.
Regarding YVQEKRDGLKRRQQLEEELLRASI [K23S], the protein stability index was determined as 2.36. With YVQEKRDGLKRRQQLEEELLRADI [K23D], the protein stability index was 2.55. For YVQEKRDGLKRRQQLEEELLRAQI [K23Q], the protein stability index turned out to be 1.59. For the variant YVQEKRDGLKRRQQLEEELLRAGI [K23G], the protein stability index was found to be 1.86.

In the case of YVQEKRDGLKRRQQLEEELLRAFI [K23F], the protein stability index was 1.81.

Consider YVQEKRDGLKRRQQLEEELLRAII [K23I], for which the protein stability index came out at 1.73. For the variant YVQEKRDGLKRRQQLEEELLRAPI [K23P], the protein stability index stood at 2.63. YVQEKRDGLKRRQQLEEELLRAHI [K23H]: the protein stability index worked out at 2.95. On to YVQEKRDGLKRRQQLEEELLRACI [K23C], for which the protein stability index stood at 1.79. For the variant YVQEKRDGLKRRQQLEEELLRATI [K23T], the protein stability index turned out to be 2.08. For the variant YVQEKRDGLKRRQQLEEELLRAAI [K23A], the protein stability index came out at 1.78.

In the case of YVQEKRDGLKRRQQLEEELLRARI [K23R], the protein stability index was 2.45. As to YVQEKRDGLKRRQQLEEELLRAYI [K23Y], the protein stability index came out at 1.49. As for YVQEKRDGLKRRQQLEEELLRANI [K23N], the protein stability index came to 2.28.

With YVQEKRDGLKRRQQLEEEGLRAKI [L19G], the protein stability index amounted to 2.54. For the variant YVQEKRDGLKRRQQLEEEVLRAKI [L19V], the protein stability index worked out at 1.7. In the case of YVQEKRDGLKRRQQLEEEHLRAKI [L19H], the protein stability index was found to be 2.16. The same measure, in the same setting: the value for YVQEKRDGLKRRQQLEEEQLRAKI [L19Q] was 1.78; that for YVQEKRDGLKRRQQLEEERLRAKI [L19R] was 2.38. As for YVQEKRDGLKRRQQLEEESLRAKI [L19S], the protein stability index came to 2.45. Turning to YVQEKRDGLKRRQQLEEENLRAKI [L19N], the protein stability index stood at 2.14. Still for that read-out and setting: in the case of YVQEKRDGLKRRQQLEEEELRAKI [L19E] it was 1.95; in that of YVQEKRDGLKRRQQLEEEWLRAKI [L19W], 2.17. Still for that read-out and setting: the value for YVQEKRDGLKRRQQLEEEILRAKI [L19I] was 1.88; that for YVQEKRDGLKRRQQLEEEALRAKI [L19A] was 1.96; that for YVQEKRDGLKRRQQLEEEKLRAKI [L19K] was 2.42. Take YVQEKRDGLKRRQQLEEEMLRAKI [L19M]: the protein stability index turned out to be 2.06. Take YVQEKRDGLKRRQQLEEEPLRAKI [L19P]: the protein stability index stood at 2.34. On to YVQEKRDGLKRRQQLEEEYLRAKI [L19Y], for which the protein stability index is 1.55. Take YVQEKRDGLKRRQQLEEETLRAKI [L19T]: the protein stability index came to 1.75.

Consider YVQEKRDGLKRRQQLEEEDLRAKI [L19D], for which the protein stability index was 2.3. As for YVQEKRDGLKRRQQLEEECLRAKI [L19C], the protein stability index was found to be 1.95. As for YVQEKRDGLKRRQQLEEEFLRAKI [L19F], the protein stability index is 2.37.

The variants in a further series derive from B2. The description is as above. The note with it: c terminus: a fixed tail appended.
In the case of KQGSMRIFTKKLPHPDLPAEEKEQ [F1K], the protein stability index came to 4.9. As for PQGSMRIFTKKLPHPDLPAEEKEQ [F1P], the protein stability index came out at 4.83. For AQGSMRIFTKKLPHPDLPAEEKEQ [F1A], the protein stability index was determined as 5.07. For EQGSMRIFTKKLPHPDLPAEEKEQ [F1E], the protein stability index is 5.48. Regarding WQGSMRIFTKKLPHPDLPAEEKEQ [F1W], the protein stability index was 4.78. Same read-out and setting: in the case of DQGSMRIFTKKLPHPDLPAEEKEQ [F1D] it was 5.37; in that of HQGSMRIFTKKLPHPDLPAEEKEQ [F1H], 4.53; in that of MQGSMRIFTKKLPHPDLPAEEKEQ [F1M], 4.19. On the same count and under the same terms, in the case of IQGSMRIFTKKLPHPDLPAEEKEQ [F1I] it was 4.17.

Regarding YQGSMRIFTKKLPHPDLPAEEKEQ [F1Y], the protein stability index turned out to be 2.11. Same read-out and setting: the value for SQGSMRIFTKKLPHPDLPAEEKEQ [F1S] was 5.04.

On to TQGSMRIFTKKLPHPDLPAEEKEQ [F1T], for which the protein stability index worked out at 4.86.

As for QQGSMRIFTKKLPHPDLPAEEKEQ [F1Q], the protein stability index worked out at 4.89. As for RQGSMRIFTKKLPHPDLPAEEKEQ [F1R], the protein stability index was 4.95.

GQGSMRIFTKKLPHPDLPAEEKEQ [F1G]: the protein stability index worked out at 4.66. In the case of VQGSMRIFTKKLPHPDLPAEEKEQ [F1V], the protein stability index was 4.52. On the same count and under the same terms, the value for LQGSMRIFTKKLPHPDLPAEEKEQ [F1L] was 4.29. On the same count and under the same terms, in the case of NQGSMRIFTKKLPHPDLPAEEKEQ [F1N] it was 5.22. On to CQGSMRIFTKKLPHPDLPAEEKEQ [F1C], for which the protein stability index amounted to 4.82.

Take FQDSMRIFTKKLPHPDLPAEEKEQ [G3D]: the protein stability index turned out to be 1.61. Same read-out and setting: the value for FQTSMRIFTKKLPHPDLPAEEKEQ [G3T] was 3; that for FQCSMRIFTKKLPHPDLPAEEKEQ [G3C] was 1.86; that for FQISMRIFTKKLPHPDLPAEEKEQ [G3I] was 2.07. In the case of FQYSMRIFTKKLPHPDLPAEEKEQ [G3Y], the protein stability index worked out at 2.57.

In the case of FQSSMRIFTKKLPHPDLPAEEKEQ [G3S], the protein stability index is 2.31. Consider FQQSMRIFTKKLPHPDLPAEEKEQ [G3Q], for which the protein stability index amounted to 3.51. FQFSMRIFTKKLPHPDLPAEEKEQ [G3F]: the protein stability index amounted to 1.68.

For FQASMRIFTKKLPHPDLPAEEKEQ [G3A], the protein stability index was 2.61. With FQESMRIFTKKLPHPDLPAEEKEQ [G3E], the protein stability index stood at 2.17.

Take FQVSMRIFTKKLPHPDLPAEEKEQ [G3V]: the protein stability index is 2.01. Same read-out and setting: the value for FQMSMRIFTKKLPHPDLPAEEKEQ [G3M] was 2.67; that for FQLSMRIFTKKLPHPDLPAEEKEQ [G3L] was 2.23; that for FQNSMRIFTKKLPHPDLPAEEKEQ [G3N] was 2.2. Turning to FQHSMRIFTKKLPHPDLPAEEKEQ [G3H], the protein stability index came out at 2.54.

On to FQRSMRIFTKKLPHPDLPAEEKEQ [G3R], for which the protein stability index turned out to be 3.64.

Regarding FQKSMRIFTKKLPHPDLPAEEKEQ [G3K], the protein stability index was found to be 3.37. For the variant FQPSMRIFTKKLPHPDLPAEEKEQ [G3P], the protein stability index came to 2.53. As to FQWSMRIFTKKLPHPDLPAEEKEQ [G3W], the protein stability index turned out to be 1.85. FYGSMRIFTKKLPHPDLPAEEKEQ [Q2Y]: the protein stability index was found to be 2.92.

For the variant FRGSMRIFTKKLPHPDLPAEEKEQ [Q2R], the protein stability index stood at 3.89. For the variant FWGSMRIFTKKLPHPDLPAEEKEQ [Q2W], the protein stability index worked out at 2.82. On to FIGSMRIFTKKLPHPDLPAEEKEQ [Q2I], for which the protein stability index is 1.78. As for FHGSMRIFTKKLPHPDLPAEEKEQ [Q2H], the protein stability index worked out at 3.58.

As to FGGSMRIFTKKLPHPDLPAEEKEQ [Q2G], the protein stability index was 3.26. As to FMGSMRIFTKKLPHPDLPAEEKEQ [Q2M], the protein stability index was 3.46. As to FKGSMRIFTKKLPHPDLPAEEKEQ [Q2K], the protein stability index turned out to be 4.16.

For FDGSMRIFTKKLPHPDLPAEEKEQ [Q2D], the protein stability index was found to be 4.49. As to FFGSMRIFTKKLPHPDLPAEEKEQ [Q2F], the protein stability index was 2.99. On the same count and under the same terms, the value for FTGSMRIFTKKLPHPDLPAEEKEQ [Q2T] was 2.2; that for FPGSMRIFTKKLPHPDLPAEEKEQ [Q2P] was 1.75.

In the case of FSGSMRIFTKKLPHPDLPAEEKEQ [Q2S], the protein stability index amounted to 2.7. On the same count and under the same terms, the value for FCGSMRIFTKKLPHPDLPAEEKEQ [Q2C] was 3.34; that for FNGSMRIFTKKLPHPDLPAEEKEQ [Q2N] was 2.85.

As for FLGSMRIFTKKLPHPDLPAEEKEQ [Q2L], the protein stability index stood at 2.73. As to FAGSMRIFTKKLPHPDLPAEEKEQ [Q2A], the protein stability index was determined as 2.29. Consider FEGSMRIFTKKLPHPDLPAEEKEQ [Q2E], for which the protein stability index was 4.12.

Consider FQGEMRIFTKKLPHPDLPAEEKEQ [S4E], for which the protein stability index was 2.28. Consider FQGFMRIFTKKLPHPDLPAEEKEQ [S4F], for which the protein stability index was 1.1. On to FQGAMRIFTKKLPHPDLPAEEKEQ [S4A], for which the protein stability index was found to be 2.33.

With FQGDMRIFTKKLPHPDLPAEEKEQ [S4D], the protein stability index was 1.33. With FQGCMRIFTKKLPHPDLPAEEKEQ [S4C], the protein stability index was 1.39.

These data come from the supplement of paper PMC10567573.
